Experimental data from paper PMC9181416.

Target: PIN1 HL-1, fragment of the PIN1 hydrophilic loop, amino acids 289-451 (Arabidopsis thaliana) (UniProt Q9C6B8)
Assay: AUC; sedimentation velocity, 42,000 rpm, 20 °C, 50 mM NaP pH 7.4, 150 mM NaCl, absorbance at 280 nm, c(s) distribution (SEDFIT); PIN1 HL-1 at 1.26 mg/mL; monomer to dimer

Substance: PIN1 HL-1, fragment of the PIN1 hydrophilic loop, amino acids 289-451 (from UniProt Q9C6B8 289-451) (domain or fragment)
- stoichiometry N: 2
